Laboratory results taken from patent publication US20260062466A1 (WASHINGTON UNIVERSITY, published 2026).

Legend:
CHIKV-37997 (virus) = CHIKV-37997 (virus) (Chikungunya virus strain 37997, UniProt Q5XXP3 326-748; Q5XXP3 810-1248); assay: cell-based or functional assay
CHIKV-LR 2006 (virus) = CHIKV-LR 2006 (virus) (Chikungunya virus strain LR 2006); assay: cell-based or functional assay

CHIKV-37997 (virus), sequence (Q5XXP3 326-748 limits assumed, chain 1 of 2): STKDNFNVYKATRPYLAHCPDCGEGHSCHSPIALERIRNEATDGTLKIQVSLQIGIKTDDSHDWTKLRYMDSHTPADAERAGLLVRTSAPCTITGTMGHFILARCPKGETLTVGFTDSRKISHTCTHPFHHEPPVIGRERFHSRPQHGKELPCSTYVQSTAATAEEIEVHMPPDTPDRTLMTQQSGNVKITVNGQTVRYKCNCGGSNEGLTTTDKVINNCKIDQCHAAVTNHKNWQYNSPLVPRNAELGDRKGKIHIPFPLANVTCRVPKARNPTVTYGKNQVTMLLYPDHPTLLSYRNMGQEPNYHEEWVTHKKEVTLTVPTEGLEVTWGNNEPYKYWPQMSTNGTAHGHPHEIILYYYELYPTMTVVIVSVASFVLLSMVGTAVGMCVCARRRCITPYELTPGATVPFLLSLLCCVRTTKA
CHIKV-37997 (virus), sequence (Q5XXP3 810-1248 limits assumed, chain 2 of 2): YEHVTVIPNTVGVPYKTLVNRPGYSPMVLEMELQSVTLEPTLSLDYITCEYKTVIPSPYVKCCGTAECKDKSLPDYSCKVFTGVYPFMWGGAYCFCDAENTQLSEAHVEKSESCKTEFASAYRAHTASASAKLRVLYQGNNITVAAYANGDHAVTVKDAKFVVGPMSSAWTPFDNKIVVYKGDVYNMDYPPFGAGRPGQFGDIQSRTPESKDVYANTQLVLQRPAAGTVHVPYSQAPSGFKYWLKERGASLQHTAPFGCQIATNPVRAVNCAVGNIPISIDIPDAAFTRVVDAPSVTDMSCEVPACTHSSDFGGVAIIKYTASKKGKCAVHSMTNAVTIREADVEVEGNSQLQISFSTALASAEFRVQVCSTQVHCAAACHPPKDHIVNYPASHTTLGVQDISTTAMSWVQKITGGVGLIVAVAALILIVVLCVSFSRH

Binder	FRNT neutralisation, 37997 EC50 (CHIKV-37997 (virus))	FRNT neutralisation, LR 2006 EC50 (CHIKV-LR 2006 (virus))
516.A10 (antibody, V domains shown) VH: QVQMVESGGGVVQPGRSLRLSCAASGFTFSSYPIHWVRQVPGKGLEWVAVISYDGSNKYYADSVKGRFTISRDNSKNTLYLQMNSLRPEDTAVYFCARGRGDFELNSFDYWGQGTLVTVSS VL: EIVLTQSPGTLSLSPGERATLSCRASQSVSSSYLGWYQQKLGQAPRLLIYGASSRATGIPDRFSGSGSGTDFTLTISRLEPEDFAVYYCQQYGSTPFTFGPGTKVDIK	0.128 µg/mL	0.004 µg/mL
506.A08 (antibody, V domains shown) VH: EEQLVESGGGLVQPGGSLRLSCAASGFTFSSYSMNWVRQAPGKGLEWVSYISSSSSTIHYADSVKGRFTISRDNAKNSLYLQMNSLRAEDTAVYYCAREGNSGYEPLDYWGQGTLVTVSS VL: not shown	0.072 µg/mL	0.11 µg/mL
506.C01 (antibody, V domains shown) VH: QVQLQESGPGLVKPSQTLSLTCTVSGGSISSDDYYWTWIRLPPGKGLEWIGYIFYTGGTYYNPSLKSRVTISLDRSKNQFSLKLSSVTAADTAVYFCARAPETYCSTTNCYKGYFDSWGQGTLVTVSS VL: DIQMTQSPSSVSASVGDRVTITCRASQGISSWLGWYQQKPGKAPKLLIYAASSLQSGVPSRFSGSGSGTDFTLTISSLQPEDFATYYCQQANSFPRTFGQGTKVEIK	0.002 µg/mL	0.008 µg/mL
